Experimental data from patent publication US20210340208A1 (ANWITA BIOSCIENCES, published 2021).
Where a chain is given by its changes, count along the chain named. Numbers in names are those of the source.

T1: IL-2Rα-Fc fusion protein (human, UniProt P01589 22-240)
T1 construct: also called human IL-2Rα (CD25); CD25; not shown: Fc part and any linker are not described; captured on an anti-human IgG Fc sensor
T1 sequence: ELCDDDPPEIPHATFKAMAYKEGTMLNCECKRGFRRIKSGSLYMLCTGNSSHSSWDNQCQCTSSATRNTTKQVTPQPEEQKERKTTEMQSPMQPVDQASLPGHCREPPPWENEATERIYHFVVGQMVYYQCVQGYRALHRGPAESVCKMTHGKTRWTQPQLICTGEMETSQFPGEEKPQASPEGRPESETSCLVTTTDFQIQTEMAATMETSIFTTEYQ

T2: human CD122-Fc (AbroBio) (human, UniProt P14784 27-239)
T2 construct: also called IL-2Rβ; not shown: Fc part and any linker of the bought protein are not described; captured on an anti-human Fc sensor
T2 sequence: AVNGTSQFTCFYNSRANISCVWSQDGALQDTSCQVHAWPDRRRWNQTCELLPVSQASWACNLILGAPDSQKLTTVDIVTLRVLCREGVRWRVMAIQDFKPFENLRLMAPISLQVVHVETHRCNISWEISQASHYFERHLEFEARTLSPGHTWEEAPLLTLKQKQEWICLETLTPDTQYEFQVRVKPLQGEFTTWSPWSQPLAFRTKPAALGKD

B1: hIL-2-anti-HSA A38 (ligand)
chain: APTSSSTKKTQLQLEHLLLDLQMILNGINNYENPKLTAMLTAKFYMPKKATELKHLQCLEEELKPLEEVLNLAQSKNFHLRPRDLISNINVIVLELKGSETTFMCEYADETATIVEFLNRWITFSQSIISTLTGSGGSGGSGGSGEVQLVESGGGLVQPGGSLRLSCAASGSTWSINTLAWYRQAPGKQRDLVARISSGGSTYYADSVKGRFTISRDNSKNTLYLQMNSLRAEDTAVYYCYAQSTWYPPSWGQGTLVTVSS
notes: fused to anti-HSA VHH; also called IL2 mutein (K32E, R38A, F42A, C125S)
B2: hIL-2-anti-HSA A40 (ligand)
chain: B1 chain with A38G
notes: fused to anti-HSA VHH; also called IL2 mutein (K32E, R38G, F42A, C125S)
B3: hIL-2-anti-HSA A64 (ligand)
chain: B1 chain with T3A, E32K, A38N, L40T, E95N
notes: fused to anti-HSA VHH; also called hIL-2 mutein (T3A, R38N, L40T, F42A, E95N, C125S)
B4: hIL-2-anti-HSA A45 (ligand)
chain: B1 chain with A38E, A42K
notes: fused to anti-HSA VHH; also called IL2 mutein (K32E, R38E, F42K, C125S)
B5: hIL-2-anti-HSA A72 (ligand)
chain: B1 chain with A38R, A42C, V69C, E95N
notes: fused to anti-HSA VHH; also called hIL-2 mutein (K32E, F42C, V69C, E95N, C125S)
B6: hIL-2-anti-HSA A71 (ligand)
chain: B1 chain with A38R, A42C, V69C, I92L
notes: fused to anti-HSA VHH; also called hIL-2 mutein (K32E, F42C, V69C, I92L, C125S)
B7: hIL-2-anti-HSA A70 (ligand)
chain: B1 chain with A38R, A42C, V69C, V91I, I92L
notes: fused to anti-HSA VHH; also called hIL-2 mutein (K32E, F42C, V69C, V91I, I92L, C125S)
B8: hIL-2-anti-HSA A73 (ligand)
chain: B1 chain with A38R, A42C, V69C, E95Q
notes: fused to anti-HSA VHH; also called hIL-2 mutein (K32E, F42C, V69C, E95Q, C125S)
B9: hIL-2-anti-HSA A68 (ligand)
chain: B1 chain with A38R, A42C, V69C, S87E
notes: fused to anti-HSA VHH; also called hIL-2 mutein (K32E, F42C, V69C, S87E, C125S)
B10: hIL-2-anti-HSA A42 (ligand)
chain: B1 chain with A38E, A42G
notes: fused to anti-HSA VHH; also called IL2 mutein (K32E, R38E, F42G, C125S)
B11: hIL-2-anti-HSA A39 (ligand)
chain: B1 chain with A38E
notes: fused to anti-HSA VHH; also called IL2 mutein (K32E, R38E, F42A, C125S)
B12: hIL-2-anti-HSA A44 (ligand)
chain: B1 chain with A42K
notes: fused to anti-HSA VHH; also called IL2 mutein (K32E, R38A, F42K, C125S)
B13: hIL-2-anti-HSA A59 (ligand)
chain: B1 chain with T3A, Q13E, E32K, A38N, L40T
notes: fused to anti-HSA VHH; also called hIL-2 mutein (T3A, Q13E, R38N, L40T, F42A, C125S)
B14: hIL-2-anti-HSA A62 (ligand)
chain: B1 chain with T3A, M23K, E32K, A38N, L40T
notes: fused to anti-HSA VHH; also called hIL-2 mutein (T3A, M23K, R38N, L40T, F42A, C125S)
B15: hIL-2-anti-HSA A63 (ligand)
chain: B1 chain with T3A, E32K, A38N, L40T, V91I
notes: fused to anti-HSA VHH; also called hIL-2 mutein (T3A, R38N, L40T, F42A, V91I, C125S)
B16: hIL-2-anti-HSA A67 (ligand)
chain: B1 chain with A38R, A42C, V69C, D84T
notes: fused to anti-HSA VHH; also called hIL-2 mutein (K32E, F42C, V69C, D84T, C125S)
B17: hIL-2-anti-HSA A61 (ligand)
chain: B1 chain with T3A, H16N, E32K, A38N, L40T
notes: fused to anti-HSA VHH; also called hIL-2 mutein (T3A, H16N, R38N, L40T, F42A, C125S)
B18: hIL-2-anti-HSA A65 (ligand)
chain: B1 chain with Q13N, A38R, A42C, V69C
notes: fused to anti-HSA VHH; also called hIL-2 mutein (Q13N, K32E, F42C, V69C, C125S)
B19: hIL-2-anti-HSA A66 (ligand)
chain: B1 chain with L19S, A38R, A42C, V69C
notes: fused to anti-HSA VHH; also called hIL-2 mutein (L19S, K32E, F42C, V69C, C125S)
B20: hIL-2-anti-HSA A60 (ligand)
chain: B1 chain with T3A, E15V, E32K, A38N, L40T
notes: fused to anti-HSA VHH; also called hIL-2 mutein (T3A, E15V, R38N, L40T, F42A, C125S)
B21: hIL-2-anti-HSA A69 (ligand)
chain: B1 chain with A38R, A42C, V69C, S87D
notes: fused to anti-HSA VHH; also called hIL-2 mutein (K32E, F42C, V69C, S87D, C125S)

Legend:
IL-2Rα-Fc fusion protein = biological target: T1, IL-2Rα-Fc fusion protein; experiment: BLI (Octet RED96), IL-2Rα-Fc on AHC biosensor
Method: OCTET® RED96 was used to characterize the interactions of a wild-type hIL-2 and hIL-2 muteins with a human IL-2Rα (CD25). Briefly, an IL-2Rα-Fc fusion protein was loaded onto an anti-human IgG Fc capture (AHC) biosensor. The biosensor was then dipped into a solution containing a wild-type hIL-2 (WT IL-2) or an IL-2 mutein at various concentrations. Primary experimental data was analyzed with global fitting to determine a binding affinity (Kd).

human CD122-Fc (AbroBio) = biological target: T2, human CD122-Fc (AbroBio); experiment: BLI (Octet RED96), CD122-Fc on AHC sensor, 400 nM hIL-2 polypeptide
Method: OCTET® RED96 was used to characterize the interactions of a human CD122-Fc (AbroBio) with a wild-type hIL-2 and hIL-2 muteins. Briefly, an anti-human Fc sensor (AHC) loaded with the human CD122 was dip into 400 nM of an hIL-2 polypeptide. The binding signaling of fusion protein A1 was normalized to 1.

Row | Binder | binding result (IL-2Rα-Fc fusion protein) | CD122 Binding Response (A1 normalized to 1) (human CD122-Fc (AbroBio))
1 | B1 | no binding | 
2 | B2 | no binding | 
3 | B3 |  | 0.22
4 | B4 | no binding | 
5 | B5 |  | 0.39
6 | B6 |  | 1.44
7 | B7 |  | 1.31
8 | B8 |  | 0.38
9 | B9 |  | 1.72
10 | B10 | no binding | 
11 | B11 | no binding | 
12 | B12 | no binding | 
13 | B13 |  | 0.55
14 | B14 |  | 0.29
15 | B15 |  | 0.35
16 | B16 |  | 0.3
17 | B17 |  | 0.17
18 | B18 |  | 0.5
19 | B19 |  | 0.65
20 | B20 |  | 0.14
21 | B21 |  | 1.93
